In assay [1] the target is extracellular domain of CD47 fused to a His(×6)-Avi-tag. Kind of assay: ELISA. The settings on record: chain shown with the change, read off a plot.
Assay [2] deals with extracellular domain of CD47 fused to a His(×6)-Avi-tag (human). As to the kind of experiment: ELISA; CD47-ECD coated on plates; serially diluted IgGs, detected with anti-human IgG Fc-HRP; pH 6.8 (of a series from pH 6.2 to 7.6). (In general: ELISA stands for enzyme-linked immunosorbent assay.)
Assay [3] has the same target. Kind of assay: ELISA; CD47-ECD coated on plates; serially diluted IgGs, detected with anti-human IgG Fc-HRP; pH 7.6 (of a series from pH 6.2 to 7.6).

Residue numbers refer to the chain shown, from its start. Names and notes keep the numbering of the source.

As usually defined, the EC50 is the concentration needed to bring the measured effect to its halfway point.

Sequence of extracellular domain of CD47 fused to a His(×6)-Avi-tag (chain, as listed by the source): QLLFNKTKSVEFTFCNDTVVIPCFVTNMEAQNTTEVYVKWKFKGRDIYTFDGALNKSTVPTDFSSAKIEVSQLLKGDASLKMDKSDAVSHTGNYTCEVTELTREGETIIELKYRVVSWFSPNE

B1: BC31M4 (hIgG1 form) L:H38R; L:H107R (protein)
chain 1: QVQLVQSGAEVKKPGASVKVSCKASGYTFTSYGISWVRQAPGQGLEWMGWISAYNGNTNYAQKLQGRVTMTTDTSTSTAYMELRSLRSDDTAVYYCARGAVYFDYWGQGTLVTVSS
chain 2: EIVLTQSPATLSLSPGERATLSCRASQSLSRNRLAWYQQKPGQPPRLLIHWASTRESGVPDRFSGSGSGTDFTLTISSLQAEDVAVYYCQQRTQNTWTFGQGTKVEIK
In the case of B1, the EC50 in assay [1] (pH 6.8, parent: est. -1.3) was 1.4 log10(nM); in assay [1] (pH 7.4, parent: est. -0.1), 1.9 log10(nM).

B2: BC31M4 (hIgG1 form) L:H55R; L:H107R (protein)
chain 1: B1 chain 1
chain 2: B1 chain 2 with R33H, H50R
In the case of B2, the concentration for a half-maximal effect (EC50) in assay [1] (pH 6.8, parent: est. -1.3) is 0.4 log10(nM); in assay [1] (pH 7.4, parent: est. -0.1) it was 1.3 log10(nM).

B3: BC31M4 (hIgG1 form) L:H38R; L:H55R (protein)
chain 1: B1 chain 1
chain 2: B1 chain 2 with H50R, R92H
Take B3: the concentration giving a half-maximal response (EC50) in assay [1] (pH 6.8, parent: est. -1.3) is -0.9 log10(nM); in assay [1] (pH 7.4, parent: est. -0.1), -0.1 log10(nM).

B4: BC31M4 (hIgG1 form) (antibody, V domains shown)
VH: B1 chain 1
VL: B1 chain 2 with R33H, R92H
On to B4, for which the EC50 in assay [2] was found to be 0.03 nM; in assay [3], 2.12 nM.

B5: BC31M4 (hIgG1 form) L:H38R; L:H55R; L:H107R (protein)
chain 1: B1 chain 1
chain 2: B1 chain 2 with H50R
Turning to B5, in assay [1] (pH 6.8, highest antibody concentration, Log[Ab] (nM) about 3.5), the response came to 2 OD450.

The record behind these values is article PMC9844003.
